The source of these data is paper PMC9666535.

Data set [1] deals with PCNA (Homo sapiens) (UniProt P12004). The settings on record: cited from earlier work.
The target in data set [2] is FEN1 D181A•PCNA complex prebound on the nick product (FEN1•PCNA•NP) (human) (UniProt P39748). As to the kind of experiment: other fluorescence titration; apparent; FeSQ quenching of Cy3 on the DNA: FEN1 D181A (250 nM) prebound to PCNA-loaded nick DNA (Sub#28), Polδ titrated; quadratic fit (Eq. 1); 22 °C, 50 mM HEPES-KOH pH 7.5, 100 mM KCl, 10 mM MgCl2, 1 mM ATP.
FEN1 D181A•PCNA complex prebound on the nick product (FEN1•PCNA•NP) (human), sequence (P39748 2-380 D181A, chain 1 of 2): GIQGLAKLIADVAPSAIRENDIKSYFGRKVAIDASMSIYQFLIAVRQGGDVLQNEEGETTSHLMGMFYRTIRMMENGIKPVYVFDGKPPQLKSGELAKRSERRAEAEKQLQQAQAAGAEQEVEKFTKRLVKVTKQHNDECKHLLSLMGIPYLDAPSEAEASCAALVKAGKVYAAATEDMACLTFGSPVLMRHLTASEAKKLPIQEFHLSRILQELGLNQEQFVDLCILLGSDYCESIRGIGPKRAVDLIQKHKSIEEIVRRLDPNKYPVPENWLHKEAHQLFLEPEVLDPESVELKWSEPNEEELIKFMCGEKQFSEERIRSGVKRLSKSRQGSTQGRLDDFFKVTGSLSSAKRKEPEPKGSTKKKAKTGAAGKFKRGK
FEN1 D181A•PCNA complex prebound on the nick product (FEN1•PCNA•NP) (human), sequence (P12004 whole entry, chain 2 of 2, further chain): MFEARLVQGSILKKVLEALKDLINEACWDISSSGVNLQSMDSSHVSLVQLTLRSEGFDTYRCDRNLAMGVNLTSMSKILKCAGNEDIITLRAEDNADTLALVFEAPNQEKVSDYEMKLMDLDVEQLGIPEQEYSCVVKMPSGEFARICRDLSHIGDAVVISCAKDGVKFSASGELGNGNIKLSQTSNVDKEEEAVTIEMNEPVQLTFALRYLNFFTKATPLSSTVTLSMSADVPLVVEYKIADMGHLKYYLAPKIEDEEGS
Data set [3] deals with PCNA WT (UniProt P12004). The data set is described as follows: single-molecule FRET of DNA bending (TIRF); internally labeled double flap DNA on the surface, PCNA pre-loaded by RFC and trapped on it (Sub#12) or absent (Sub#13); Polδ Exo^− 250 nM in solution; 50 ms resolution; 50 mM HEPES-KOH pH 7.5, 100 mM KCl, 10 mM MgCl2. The note with it: other: single-molecule FRET of DNA bending (TIRF).
PCNA WT, sequence (P12004 whole entry): as the sequence (P12004 whole entry, chain 2 of 2, further chain) above

PCNA (Homo sapiens), sequence (P12004 whole entry): as the sequence (P12004 whole entry, chain 2 of 2, further chain) above
FEN1, sequence (P39748 whole entry): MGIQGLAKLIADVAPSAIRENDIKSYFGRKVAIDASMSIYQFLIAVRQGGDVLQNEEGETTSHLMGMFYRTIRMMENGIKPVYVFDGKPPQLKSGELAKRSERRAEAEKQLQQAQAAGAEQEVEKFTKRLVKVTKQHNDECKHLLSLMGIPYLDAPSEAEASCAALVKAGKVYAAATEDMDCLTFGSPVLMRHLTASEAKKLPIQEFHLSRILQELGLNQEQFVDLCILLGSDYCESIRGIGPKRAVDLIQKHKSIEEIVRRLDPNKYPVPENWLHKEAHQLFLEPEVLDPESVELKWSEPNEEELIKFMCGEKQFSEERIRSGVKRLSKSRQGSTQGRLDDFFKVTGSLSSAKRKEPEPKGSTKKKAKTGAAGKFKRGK

Take FEN1 (from UniProt P39748): the Kd in data set [1] was 70 nM.
Turning to “Polδ Exo^− (D515V in p125) (from UniProt P28340 1-1107; Q9HCU8 1-107) (complex)”, the Kd in data set [2] came out at 4.5 nM.
As for Polδ Exo^− (D515V in p125), in data set [3], the “assembly yield of the Polδ•PCNA complex” value is listed as “the assembly yield was only ~70%”.
